Numbered stars: 1 amine (or outer) side, 2 acyl side, 3 side chain; on linkers, the order of the positions; unused ones are H or OH. Bridge positions count the residues as written; N and C are the ends. Side chains are listed from the residue outwards. Peptide text beside a SMILES is read from it. * marks the point of attachment. X1 = C/C(=N\O)C(C)(C)NCCC(CCNC(C)(C)/C(C)=N/O)CCN*; Glutaryl = O=C(CCCC(=O)[*:2])[*:1]; X2 = NC(=O)COCC(=O)NCCOCCOCCOCCN*
Experiments:
[1] = test system: αvβ5 integrins; conditions: background statement, no reference printed; cited from earlier work
Description: As such, it holds promise as a novel diagnostic imaging agent for a range of pathological conditions. […] Methods A phase 1, randomised, placebo-controlled study assessed the safety, biodistribution and radiation dosimetry of ^99mTc-maraciclatide in healt ...

[2] = test system: healthy volunteers; assay: clinical; parameters: species or system human; conditions: in vivo
Procedure: (§1) To calculate ^99mTc-maraciclatide ex-vivo activity, blood, plasma, urine, and faeces were collected at various time points after administration. Blood and plasma samples were collected at 10 min, 30 min, 1 h, 2 h, 4 h, 8 h, 24 h, 48 h, 72 h, and 7 days post-administration. Concentrations of maraciclatide in plasma were assayed using the LC-MS method (LOQ was 0.5 ng/ml). Urine was also collected at the same time points (if possible) up to 24 h post-administration. Faecal samples were collected as voided for up to 24 h post-administration. Assayed samples for ^99mTc-maraciclatide content were then measured using a gamma counter.
Concentrations of maraciclatide in plasma were assayed using the LC-MS method (LOQ was 0.5 ng/ml). The mean apparent terminal elimination half-life was approximately 1 h. Overall, systemic clearance was approximately 6.7 ml/min/kg, whilst the mean apparent volume of distribution was approximately 520 ml/kg. The majority of ^99mTc activity was excreted through the urinary pathway and GI tract, 55% and 16%, respectively.

[3] = clinical; parameters: species or system human; conditions: human, in vivo, iv, total radioactivity
Procedure: (§2) On the day of administration before the administration of ^99mTc-maraciclatide, a transmission scan was obtained. The counts acquired from a flood or line source with and without the participant on the imaging couch were utilised to calculate body attenuation. Following intravenous administration of ^99mTc-maraciclatide, whole-body gamma scintigraphy was performed at 5 min post-administration up to 24 h as described below (section 2.6). Additional anterior and posterior planar images of the chest (45 min and 1 h 45 min, post-administration) and the pelvis (1 h 15 min and 2 h post-administration) were obtained for each participant.
(§3) Regions of interest (ROIs) were selected from organs and tissues on the whole-body scintigraphic images showing significant activity uptake. ^99mTc activity in ROIs was calculated using the methodology described in Medical Internal Radiation Dose (MIRD) Pamphlet No. 16 [15].
as §1
(§4) The biodistribution of ^99mTc was determined by whole-body conjugate view imaging in conjunction with extracorporeal activity measurements in whole blood, plasma, voided urine, and faeces, as described above. Simultaneous anterior and posterior whole-body images were acquired beginning nominally at 5 min, 15 min, 30 min, 60 min, 90 min, 3 h, 6 h and 12 h post-administration. A final anterior and posterior image pair was acquired at a ninth time-point between 21 and 24 h post-administration. Quantitative analysis of the incorporated data at multiple time points yielded biodistribution data consisting of activity in 10 specified organs or tissues [brain, salivary glands, thyroid gland, lungs, heart, spleen, liver, gallbladder, gastrointestinal (GI) tract and urinary bladder]. The remaining ^99mTc activity in other tissues was grouped within a ‘remaining tissues’ category. For each organ or tissue of interest, the ^99mTc activity was decay-corrected to the administration time and normalised to the injected activity. The temporal variation of this normalised and decay-corrected activity was then fit by one of several analytical functions, which was then integrated to yield the cumulated activity for that organ normalised to the injected activity.

[4] = test system: healthy volunteers; assay: clinical; parameters: species or system human; conditions: in vivo; remark: listed apart in the source
Procedure: as §2, §3, §1, §4

[5] = test system: integrin receptor αvβ3; conditions: background statement, no reference printed; listed as 99mTc-Maraciclatide; cited from earlier work
[6] = test system: healthy volunteers; parameters: species or system human; conditions: in vivo
Procedure: The mean absorbed doses per unit injected activity to 24 target organs were evaluated from this matrix of normalised cumulated activity values, using the MIRD schema, for a 70-kg adult human. The cumulated activity in the urinary bladder contents and voided urine was calculated using a dynamic urinary bladder model for a 3.5-h voiding interval. Cumulative activities in the GI tract were calculated using a dynamic model that assumed that activity enters the GI tract solely through hepatobiliary drainage. […] At later times, it was possible to identify the ^99mTc associated with the GI tract as predominantly that in the luminal contents. The overall time course of ^99mTc activity in a ROI set over the GI tract was typically that of an initial rapid decrease which then slowed to approach the amount present in the luminal contents. This observation was considered to be due to an initial rapid uptake and subsequent tissue clearance of ^99mTc from the GI tract walls combined with the slow introduction of ^99mTc into the GI contents via hepatobiliary transport. The activity in the luminal contents was isolated by first modelling the GI tract wall tissue clearance by the renormalised time course of activity measured in a ROI set over a region of soft tissue (the quadriceps femoris in one leg). […] The ED per unit injected activity was subsequently calculated from the ensemble of organ-absorbed dose values.
The effective dose (ED) was calculated from the ensemble of organ-absorbed dose values at 7.8 ± 0.8 μSv/MBq.

[7] = test system: healthy volunteers; assay: Phase 1 safety assessment (adverse events, vital signs, ECG, laboratory parameters)
Procedure: In 2003, a phase 1, placebo-controlled, observer-blinded, randomised, single ascending-dose study was performed. The study aimed to assess the safety of three intravenous levels of maraciclatide and the biodistribution and radiation dosimetry of ^99mTc-maraciclatide in healthy volunteers, assessing the potential of ^99mTc-maraciclatide as a radiopharmaceutical for diagnostic imaging.
Safety data on vital signs (heart rate, blood pressure, temperature, and oxygen saturation), electrocardiograms (ECG), laboratory parameters and physical examinations (general appearance, lung, abdominal, cardiovascular, and neurological exam by a qualified clinician) were measured prior to administration, and at multiple time points up to 7 days following administration. Based on clinical assessment, new abnormal or worsening clinical findings were defined as a change from the participant’s normal baseline to abnormal. All abnormal changes were recorded as adverse events (AEs).
Safety assessments were performed by an observer blinded to the administration of the placebo and ^99mTc-maraciclatide. A thorough review of safety data was performed before the decision was made to escalate to the higher dose in participants.

SMILES: C/C(=N\O)C(C)(C)NCCC(CCNC(=O)CCCC(=O)NCCCC[C@@H]1NC(=O)CSC[C@@H](C(=O)NCCOCCOCCOCCNC(=O)COCC(N)=O)NC(=O)[C@H](Cc2ccccc2)NC(=O)[C@@H]2CSSC[C@H](NC1=O)C(=O)N[C@@H](CCCNC(=N)N)C(=O)NCC(=O)N[C@@H](CC(=O)O)C(=O)N2)CCNC(C)(C)/C(C)=N/O (some centres unmarked) [^99mTc-maraciclatide, metal not drawn] ({CH2CO}-K([Glutaryl-X1])CRGDCFC-X2; disulfide 2-6; thioether N-8; N-terminus and C-terminus assumed)
- affinity to αvβ5 [1]: high affinity
- systemic urinary clearance [2]: approximately 6.7 ml/min/kg
- dose excreted ([3]; 99mTc activity excreted through the GI tract): 16%
- dose excreted ([3]; 99mTc activity excreted through the urinary pathway): 55%
- normalised cumulated activity, combined walls of the small intestine and upper and lower large intestine [4]: 0.9 ± 0.2 MBq*h/MBq
- normalised cumulated activity, contents of the upper large intestine [4]: 0.3 ± 0.1 MBq*h/MBq
- normalised cumulated activity, liver [4]: 0.8 ± 0.2 MBq*h/MBq
- normalised cumulated activity, lung [4]: 0.4 ± 0.1 MBq*h/MBq
- uptake in the red bone marrow [4]: too low to be quantified
- affinity to αvβ3 [5]: high affinity
- mean effective dose (ED) per unit injected activity [6]: 7.8 μSv/MBq
- Absorbed dose per unit administered activity, Adrenal glands ([6]; iv): 4.7 μGy/MBq
- Absorbed dose per unit administered activity, Bone surfaces ([6]; iv): 4.5 μGy/MBq
- Absorbed dose per unit administered activity, Brain ([6]; iv): 1.3 μGy/MBq
- Absorbed dose per unit administered activity, Breasts ([6]; iv): 1.8 μGy/MBq
- Absorbed dose per unit administered activity, Gallbladder wall ([6]; iv): 8.7 μGy/MBq
- Absorbed dose per unit administered activity, Heart wall ([6]; iv): 6.1 μGy/MBq
- Absorbed dose per unit administered activity, Kidneys ([6]; iv): 16.5 μGy/MBq
- Absorbed dose per unit administered activity, Liver ([6]; iv): 11.1 μGy/MBq
- Absorbed dose per unit administered activity, Lower large intestine wall ([6]; iv): 11.7 μGy/MBq
- Absorbed dose per unit administered activity, Lungs ([6]; iv): 7.3 μGy/MBq
- Absorbed dose per unit administered activity, Muscle ([6]; iv): 2.8 μGy/MBq
- Absorbed dose per unit administered activity, Ovaries ([6]; iv): 6.3 μGy/MBq
- Absorbed dose per unit administered activity, Pancreas ([6]; iv): 5.0 μGy/MBq
- Absorbed dose per unit administered activity, Red marrow ([6]; iv): 3.0 μGy/MBq
- Absorbed dose per unit administered activity, Skin ([6]; iv): 1.5 μGy/MBq
- Absorbed dose per unit administered activity, Small intestine wall ([6]; iv): 8.9 μGy/MBq
- Absorbed dose per unit administered activity, Spleen ([6]; iv): 16.1 μGy/MBq
- Absorbed dose per unit administered activity, Stomach ([6]; iv): 3.8 μGy/MBq
- Absorbed dose per unit administered activity, Testes ([6]; iv): 2.8 μGy/MBq
- Absorbed dose per unit administered activity, Thymus gland ([6]; iv): 2.5 μGy/MBq
- Absorbed dose per unit administered activity, Thyroid gland ([6]; iv): 4.9 μGy/MBq
- Absorbed dose per unit administered activity, Upper large intestine wall ([6]; iv): 14.7 μGy/MBq
- Absorbed dose per unit administered activity, Urinary bladder wall ([6]; iv): 36.2 μGy/MBq
- Absorbed dose per unit administered activity, Uterus ([6]; iv): 7.5 μGy/MBq
- number of non-serious AEs ([7]; 24 participants receiving protocol-stipulated dose): 31
- deaths ([7]; all dose groups, single i.v.): no deaths
- intensity of related AEs ([7]; in vivo): mild intensity
- laboratory, ECG and vital signs parameters ([7]; in vivo): no clinically important safety trends
- participants experiencing non-serious AEs (number) ([7]; in vivo): 17
- participants experiencing non-serious AEs (percent) ([7]; in vivo): 71%
- participants with AEs attributed to the agent ([7]; in vivo): 6
- participants with AEs that required medical treatment (number) ([7]; in vivo): 3
- participants with AEs that required medical treatment (percent) ([7]; in vivo): 13%
- participants with reduction in red blood cell count (number) ([7]; in vivo): 4
- participants with reduction in red blood cell count (percent) ([7]; in vivo): 17%
- time to resolution of related AEs ([7]; in vivo): ≤ 25 h

Source: article PMC10916747, “Safety, biodistribution and radiation dosimetry of the Arg-Gly-Asp peptide ^99mTc-maraciclatide in healthy volunteers” (Nuclear Medicine Communications, 2024)
